Assay results taken from patent publication US20260345798A1, “COMPOUNDS AND METHODS OF USE THEREOF” (Virginia Commonwealth University, priority 2023, published 2026).
Residues, ends and D or L forms follow the SMILES beside them.

What was measured:
[1] = target: T1, MDA-9/Syntenin: Src (Homo sapiens, UniProt O00560); experiment: Co-immunoprecipitation MDA-9/Syntenin: Src; type: cell-based; details: C8161.9 and A-375 cells; co-IP after 12 hours treatment, fibronectin-coated plates
T1 construct: co-immunoprecipitation with anti-MDA-9
T1 sequence (O00560 whole entry): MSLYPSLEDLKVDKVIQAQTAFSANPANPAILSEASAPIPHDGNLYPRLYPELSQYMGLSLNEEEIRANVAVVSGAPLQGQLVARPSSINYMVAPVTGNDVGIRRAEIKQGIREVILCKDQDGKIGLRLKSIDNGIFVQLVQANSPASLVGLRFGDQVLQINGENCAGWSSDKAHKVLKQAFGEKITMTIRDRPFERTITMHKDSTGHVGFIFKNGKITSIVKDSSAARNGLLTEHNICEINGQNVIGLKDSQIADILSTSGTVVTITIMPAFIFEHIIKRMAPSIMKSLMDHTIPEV
Protocol: FIG. 4A is an immunoblot of C8161.9 and A-375 cells treated for 12 hours with either DMSO vehicle or IVMT-Rx-3 at different doses (as indicated) and re-plated onto fibronectin-coated plates. After 30 minutes, cell lysates were immunoprecipitated and immunoblotted with the indicated antibodies.
Co-immunoprecipitation studies were performed as described previously using immunoprecipitation kits with Dynabeads® Protein G (Life Technologies) (7,8). Briefly, 30 min. after plating cells on fibronectin-coated plates, protein lysates were prepared. 200 μg of total cellular protein was incubated with anti-IgG or anti-MDA-9 overnight to facilitate binding. After subsequent washing and elution from beads, Western blotting was performed with specific antibodies.

[2] = test system: IGFBP-2; experiment: IGFBP-2 in blood plasma of B16-injected mice; type: in vivo, mouse; details: 30 mg/kg I.P., 6 injections
Excerpt: FIG. 6C is a histogram showing the IGFBP-2 expression measured in blood plasma from animals (n=7) in the treatment groups described in FIG. 6A. ****: Statistical significance (p<0.0001).

[3] = test system: primary normal human epidermal melanocytes (NHEM); experiment: MTT and colony formation assays in normal human melanocytes; type: cell-based
Protocol: FIG. 2A is a histogram showing the results of an MTT assay of normal human melanocytes treated with varying concentrations of IVMT-Rx-3.
FIG. 2B is a histogram showing the results of a colony formation assay of normal human melanocytes treated with varying concentrations of IVMT-Rx-3. Two-hundred cells were plated on 60-mm dishes, treated with IVMT-Rx-3 at different doses. Every third day, culture media was replaced with fresh IVMT-Rx-3-containing media. After two weeks, colonies were stained, counted and graphs plotted.
The effect of IVMT-Rx-3 on primary normal human epidermal melanocyte cell growth and survival was determined after short term (24 hr., growth assays) (FIG. 2A) and long-term exposure (3-week, clonal assays) (FIG. 2B).

## Cc1cc(NC(=O)c2nc3[nH]c4c(c(=O)n3n2)CCC4)c(C)cc1NC(=O)CCOCCC(=O)N[C@H](C(=O)N[C@@H](CC(N)=O)C(=O)N[C@@H](CCC(=O)O)C(=O)N[C@@H](Cc1ccc(O)cc1)C(=O)N[C@@H](Cc1ccc(O)cc1)C(=O)N[C@H](C(=O)O)C(C)C)[C@@H](C)O [IVMT-Rx-3] (HELM PEPTIDE1{[Cc1cc(NC(=O)c2nc3[nH]c4c(c(=O)n3n2)CCC4)c(C)cc1NC(=O)CCOCCC(=O)[*:2]].T.N.E.Y.Y.V}$$$$V2.0)
[1]
  disruption of MDA-9/Syntenin: Src interactions: disrupted MDA-9/Syntenin: Src interactions
[2]
  IGFBP-2 levels in blood plasma: down regulation
[3]; 50 μM, repeated treatment, FIG. 2A and 2B
  effect on cell proliferation on repeated treatment: did not show any effect on cell proliferation
[3]; 50 μM, 24 hr growth assay and 3-week clonal assay
  toxicity in primary melanocytes: No significant toxicity
[3]; summary statement
  toxicity in early passage normal human melanocytes: without provoking toxicity
[3]; varying concentrations, FIG. 2A
  effect on cell proliferation in NHEM (MTT assay): lack of effect
